B1: α-amino-β-carboxymuconate-ε-semialdehyde decarboxylase (ACMSD) from Pseudomonas fluorescens KU-7 (enzyme)
chain: MKKPRIDMHSHFFPRISEQEAAKFDANHAPWLQVSAKGDTGSIMMGKNNFRPVYQALWDPAFRIEEMDAQGVDVQVTCATPVMFGYTWEANKAAQWAERMNDFALEFAAHNPQRIKVLAQVPLQDLDLACKEASRAVAAGHLGIQIGNHLGDKDLDDATLEAFLTHCANEDIPILVHPWDMMGGQRMKKWMLPWLVAMPAETQLAILSLILSGAFERIPKSLKICFGHGGGSFAFLLGRVDNAWRHRDIVREDCPRPPSEYVDRFFVDSAVFNPGALELLVSVMGEDRVMLGSDYPFPLGEQKIGGLVLSSNLGESAKDKIISGNASKFFNINV
notes: ACMSD from Pseudomonas fluorescens KU-7, UniProt Q83V25; Zinc-dependent metalloenzyme; also called pfACMSD; wild-type ACMSD; source: stored in 25 mM HEPES pH 7.0

What was measured:
O=C(O)CC(=O)C(=O)O = system: T1, O=C(O)CC(=O)C(=O)O; assay: purified protein; type: biochemical, Pseudomonas fluorescens; conditions: HEPES pH 7.0, keto to enol form
T1 construct: recombinant from pET16b-ACMSD, purified; Zn-dependent homodimer with Arg239* from adjacent subunit

purified protein = substrate: O=C(O)CC(=O)C(=O)O; assay: purified protein; conditions: HEPES pH 7.0, Zn enzyme, keto to enol form
[1] = target: the molecule itself; assay: crystal structure; malonate-bound wild-type ACMSD, 10 mg/ml (270 uM); 50 mM malonate in place of Tacsimate, 0.1 M sodium citrate tribasic pH 5.6, 12% (w/v) PEG 3350; 2.21 A

| Molecule | Km (O=C(O)CC(=O)C(=O)O) [µM] | kcat (O=C(O)CC(=O)C(=O)O) [s⁻¹] | kcat/Km (O=C(O)CC(=O)C(=O)O) [M⁻¹ s⁻¹] | Km (purified protein) [µM] | kcat (purified protein) [s⁻¹] | kcat/Km (purified protein) [M⁻¹ s⁻¹] | binding result [1] |
| --- | --- | --- | --- | --- | --- | --- | --- |
| ACMSD (pfACMSD) (Pseudomonas fluorescens; H228A) | 570 ± 130 | 2.98 ± 0.35 | 5200 | – | – | – | – |
| ACMSD (pfACMSD) (Pseudomonas fluorescens; W194A) | 800 ± 80 | 4.18 ± 0.25 | 5200 | – | – | – | – |
| B1 | – | – | – | 1120 ± 140 | 6.51 | 5800 | binds |
